Measurements from patent US20250171562A1.

Target: mixture of three Der p 2 specific recombinant human IgE clones H10, H12, P4E (human) (UniProt P01854)
Experiment: RBL-SX38 IgE displacement, FACS

Chain of mixture of three Der p 2 specific recombinant human IgE clones H10, H12, P4E (human) (P01854 other isoform, or with tags, fused parts or gaps): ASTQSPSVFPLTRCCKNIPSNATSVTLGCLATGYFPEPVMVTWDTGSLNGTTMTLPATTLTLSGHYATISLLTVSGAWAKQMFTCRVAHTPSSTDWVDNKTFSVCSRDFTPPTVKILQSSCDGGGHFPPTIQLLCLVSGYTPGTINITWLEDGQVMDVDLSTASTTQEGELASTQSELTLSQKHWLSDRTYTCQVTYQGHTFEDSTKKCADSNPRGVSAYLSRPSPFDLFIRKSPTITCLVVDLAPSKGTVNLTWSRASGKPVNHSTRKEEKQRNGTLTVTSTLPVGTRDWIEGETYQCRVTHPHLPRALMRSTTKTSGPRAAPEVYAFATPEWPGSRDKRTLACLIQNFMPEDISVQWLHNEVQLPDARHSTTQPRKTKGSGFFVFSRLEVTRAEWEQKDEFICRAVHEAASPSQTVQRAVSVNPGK

B1: CIgG4E2A1(RS) (Fc fusion)
chain 1: GPPCPPCPAPEFLGGPSVFLFPPKPKDTLMISRTPEVTCVVVDVSQEDPEVQFNWYVDGVEVHNAKTKPREEQFNSTYRVVSVLTVLHQDWLNGKEYKCKVSNKGLPSSIEKTISKAKGQPREPQVYTLPPCQEEMTKNQVSLWCLVKGFYPSDIAVEWESNGQPENNYKTTPPVLDSDGSFFLYSRLTVDKSRWQEGNVFSCSVMHEALHNHYTQKSLSLSLGKRSDVQLQESGGGLVQAGGSLRLSCAASGRTISRYAVGWFRRPPAKEREFIGINWSGGSTTYADSAEGRFIISRDNAKNTVYLQMNSLKPEDTAVYYCAVPSVLVQGGISNPSQYDYWGQGTQVTVS
chain 2: GPPCPPCPAPEFLGGPSVFLFPPKPKDTLMISRTPEVTCVVVDVSQEDPEVQFNWYVDGVEVHNAKTKPREEQFNSTYRVVSVLTVLHQDWLNGKEYKCKVSNKGLPSSIEKTISKAKGQPREPQVCTLPPSQEEMTKNQVSLSCAVKGFYPSDIAVEWESNGQPENNYKTTPPVLDSDGSFFLVSRLTVDKSRWQEGNVFSCSVMHEALHNHYTQKSLSLSLGKRSEVQLLESGGGLVQPGGSLRLSCAASGFTFGNYDMAWVRQAPGKRPEWVSSIDTGGDITHYADSVKGRFTISRDNAKNTLYLQMNSLRPEDTAVYWCATDEEYALGPNEFDYYGQGTLVTVSS
- Max effect/effect 1 µM: 6%

B2: CIgG4E2A1(G4S)1 (Fc fusion)
chain 1: GPPCPPCPAPEFLGGPSVFLFPPKPKDTLMISRTPEVTCVVVDVSQEDPEVQFNWYVDGVEVHNAKTKPREEQFNSTYRVVSVLTVLHQDWLNGKEYKCKVSNKGLPSSIEKTISKAKGQPREPQVYTLPPCQEEMTKNQVSLWCLVKGFYPSDIAVEWESNGQPENNYKTTPPVLDSDGSFFLYSRLTVDKSRWQEGNVFSCSVMHEALHNHYTQKSLSLSLGKGGGGSDVQLQESGGGLVQAGGSLRLSCAASGRTISRYAVGWFRRPPAKEREFIGINWSGGSTTYADSAEGRFIISRDNAKNTVYLQMNSLKPEDTAVYYCAVPSVLVQGGISNPSQYDYWGQGTQVTVS
chain 2: GPPCPPCPAPEFLGGPSVFLFPPKPKDTLMISRTPEVTCVVVDVSQEDPEVQFNWYVDGVEVHNAKTKPREEQFNSTYRVVSVLTVLHQDWLNGKEYKCKVSNKGLPSSIEKTISKAKGQPREPQVCTLPPSQEEMTKNQVSLSCAVKGFYPSDIAVEWESNGQPENNYKTTPPVLDSDGSFFLVSRLTVDKSRWQEGNVFSCSVMHEALHNHYTQKSLSLSLGKGGGGSEVQLLESGGGLVQPGGSLRLSCAASGFTFGNYDMAWVRQAPGKRPEWVSSIDTGGDITHYADSVKGRFTISRDNAKNTLYLQMNSLRPEDTAVYWCATDEEYALGPNEFDYYGQGTLVTVSS
- Max effect/effect 1 µM: 22%

B3: CIgG4E2A1(G4S)2 (Fc fusion)
chain 1: GPPCPPCPAPEFLGGPSVFLFPPKPKDTLMISRTPEVTCVVVDVSQEDPEVQFNWYVDGVEVHNAKTKPREEQFNSTYRVVSVLTVLHQDWLNGKEYKCKVSNKGLPSSIEKTISKAKGQPREPQVYTLPPCQEEMTKNQVSLWCLVKGFYPSDIAVEWESNGQPENNYKTTPPVLDSDGSFFLYSRLTVDKSRWQEGNVFSCSVMHEALHNHYTQKSLSLSLGKGGGGSGGGGSDVQLQESGGGLVQAGGSLRLSCAASGRTISRYAVGWFRRPPAKEREFIGINWSGGSTTYADSAEGRFIISRDNAKNTVYLQMNSLKPEDTAVYYCAVPSVLVQGGISNPSQYDYWGQGTQVTVS
chain 2: GPPCPPCPAPEFLGGPSVFLFPPKPKDTLMISRTPEVTCVVVDVSQEDPEVQFNWYVDGVEVHNAKTKPREEQFNSTYRVVSVLTVLHQDWLNGKEYKCKVSNKGLPSSIEKTISKAKGQPREPQVCTLPPSQEEMTKNQVSLSCAVKGFYPSDIAVEWESNGQPENNYKTTPPVLDSDGSFFLVSRLTVDKSRWQEGNVFSCSVMHEALHNHYTQKSLSLSLGKGGGGSGGGGSEVQLLESGGGLVQPGGSLRLSCAASGFTFGNYDMAWVRQAPGKRPEWVSSIDTGGDITHYADSVKGRFTISRDNAKNTLYLQMNSLRPEDTAVYWCATDEEYALGPNEFDYYGQGTLVTVSS
- EC50: 572 nM
- Max effect/effect 1 µM: 45%
